In US20190211096A1 one finds S/N (VIDAS RFV/RFV0) and VIDAS RFV Signal data, which are given here for one substance.

In assay [1] the target is human AMH of serum samples (human) (UniProt P03971). The assay is described as follows: VIDAS sandwich, detection AA011 conjugate 500 ng/ml, AMH 4 ng/ml.
Assay [2] shares this target. Briefly: VIDAS sandwich, detection AA011 conjugate 500 ng/ml, AMH 2.1 ng/ml.
Assay [3] shares this target. Briefly: VIDAS sandwich, detection AA011 conjugate 500 ng/ml, AMH 8.7 ng/ml.
Assay [4] shares this target. The assay is described as follows: VIDAS sandwich, detection AA011 conjugate 500 ng/ml, AMH 0.055 ng/ml.
The target is the same in assay [5]. Briefly: VIDAS sandwich, detection AA011 conjugate 500 ng/ml, AMH 0.9 ng/ml.
Assay [6] has the same target. Briefly: VIDAS sandwich, detection AA011 conjugate 500 ng/ml, AMH 0.11 ng/ml.
For assay [7] the target is unchanged. Briefly: VIDAS sandwich, detection AA011 conjugate 500 ng/ml, AMH 6.3 ng/ml.
The target is the same in assay [8]. The assay is described as follows: VIDAS sandwich, detection AA011 conjugate 500 ng/ml, AMH 0.275 ng/ml.
Assay [9] shares this target. Briefly: VIDAS sandwich, detection AA011 conjugate 500 ng/ml, AMH 11 ng/ml.

UniProt P03971, sequence (P03971 25-560 limits assumed): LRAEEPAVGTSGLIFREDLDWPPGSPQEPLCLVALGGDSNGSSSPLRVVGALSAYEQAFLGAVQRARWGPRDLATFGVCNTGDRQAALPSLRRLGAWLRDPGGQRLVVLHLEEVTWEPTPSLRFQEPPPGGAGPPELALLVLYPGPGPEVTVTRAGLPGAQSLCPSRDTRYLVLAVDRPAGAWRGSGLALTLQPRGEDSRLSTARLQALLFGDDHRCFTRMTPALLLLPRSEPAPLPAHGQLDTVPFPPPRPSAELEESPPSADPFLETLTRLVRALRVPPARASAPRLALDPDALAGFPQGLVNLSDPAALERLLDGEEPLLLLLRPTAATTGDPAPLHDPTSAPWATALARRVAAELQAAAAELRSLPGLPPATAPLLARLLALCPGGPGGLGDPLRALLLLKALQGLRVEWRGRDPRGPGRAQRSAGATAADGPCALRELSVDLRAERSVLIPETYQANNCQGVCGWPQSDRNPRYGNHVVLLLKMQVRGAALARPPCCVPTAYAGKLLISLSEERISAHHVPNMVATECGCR

With “AA012 commercial anti-AMH antibody (AnshLabs)”, the S/N (VIDAS RFV/RFV0) in assay [1] turned out to be 65; in assay [2], 36; in [3] it was 107; in assay [4], 2; in assay [5], 16; in assay [6] it was 3. Moreover, the figures for the S/N (VIDAS RFV/RFV0) in assay [7], in [8] and in assay [9] were 87, 5 and 120, respectively. The VIDAS RFV Signal was 2940 RFV in assay [1]; 1600 RFV in assay [2]; 4810 RFV in assay [3]; 81 RFV in [4]; 735 RFV in assay [5]; 113 RFV in assay [6]. Besides, the figures for the VIDAS RFV Signal in [7], in assay [8] and in assay [9] were 3920 RFV, 209 RFV and 5390 RFV, respectively.
